Ends that are not written are not given here. * marks the point of attachment. Biotin = O=C1N[C@H]2[C@H](CS[C@H]2CCCCC(=O)*)N1
T1: pep11 (cysteine pairing not given here)
T1 peptide: TDHGSCVRACGADSYEK(Biotin)

T2: pep20 (cysteine pairing not given here)
T2 peptide: CGADSYEMEEDGVRKCK(Biotin)

T3: pep30 (cysteine pairing not given here)
T3 peptide: DGVRKCKKCEGPCRKVK(Biotin)

T4: pep35 (cysteine pairing not given here)
T4 peptide: CKKCEGPCRKVCNGIGK(Biotin)


Tests used:
[1] = target: T1, pep11; experiment: polypeptide dot matrix ELISA
[2] = target: T2, pep20; experiment: polypeptide dot matrix ELISA
[3] = target: T3, pep30; experiment: polypeptide dot matrix ELISA
[4] = target: T4, pep35; experiment: polypeptide dot matrix ELISA
[5] = target: T5, human EGFRvIII-hFc protein (human, UniProt P00533 25-645); experiment: ELISA, coated EGFRvIII-hFc, antibody 0.0001 nM
T5 construct: extracellular domain; made in HEK293 cells, purified on protein A; also called immunogen A; hFc-tagged EGFRvIII protein; not shown: human IgG Fc fragment (hFc) of the pCpC vector
In short: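 Read-out is A450 nm after TMB development (30 min, room temperature) stopped with 1.0N HCl. Plates carried EGFRvIII-hFc at 1.0 μg/mL and were incubated with purified antibody, then HRP secondary, each 2 h at 37° C.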

[6] = target: T6, human wild-type EGFR protein on the cell surface (human, UniProt P00533 25-1210); experiment: FACS on A431 cells; A431 cells (large amount of wild-type EGFR on the surface)
T6 construct: whole, on cells; Endogenous on A431, HEB, U87MG cells and normal human primary hepatocytes; transfected on CHOk1-EGFR cells; The cell is named under assay; also called A431; HEB
Method: The cells are washed twice with the HBSS buffer and are counted, and then the cells are diluted with the HBSS buffer to 2×10⁶ cells/ml, added with 1% goat serum blocking solution, with the percentage being the mass percentage, and incubated on ice for 30 minutes, and then centrifugally washed twice with the HBSS buffer. The collected cells are suspended to 2×10⁶ cells/mL with an FACS buffer (HBSS+1% BSA, with the percentage being the mass percentage), added to a 96-well FACS reaction plate at 100 μL/well, then added with 100 μL/well of the purified EGFRvIII antibody (samples to be tested) obtained in example 2, and incubated on ice for 2 hours. The plate is centrifugally washed twice with the FACS buffer, added with 100 μL/well of a fluorescence (Alexa 488) labeled secondary antibody (purchased from Invitrogen), and then incubated on ice for 1 hour. The plate is centrifugally washed 3 times with the FACS buffer, added with 100 μL/well of a fixing solution [4% (v/v) paraformaldehyde] for suspending the cells, and centrifugally washed twice with the FACS buffer after 10 minutes. The cells are suspended in 100 μL of the FACS buffer, and the results are detected and analyzed by FACS (FACS Calibur, purchased from BD). Data analysis is performed by using the software (CellQuest) to obtain the mean fluorescence intensity (MFI) of the cells. Data is further analyzed by using the software (GraphPad Prism5) to perform data fitting and calculate EC50. […] A431 cells (human epidermal cell cancer cell lines) have a large amount of wild-type EGFR protein expressed on the surface thereof. […] U87MG cells (human glioma cell lines) have a small amount of wild-type EGFR protein expressed on the surface thereof, while HEB cells (human glioma cell lines) have a high level of wild-type EGFR protein expression on the surface thereof.

[7] = target: T6, human wild-type EGFR protein on the …; experiment: FACS on CHOk1-EGFR cells; CHOk1-EGFR cells (recombinant EGFR expression)
Method: The cells are washed twice with the HBSS buffer and are counted, and then the cells are diluted with the HBSS buffer to 2×10⁶ cells/ml, added with 1% goat serum blocking solution, with the percentage being the mass percentage, and incubated on ice for 30 minutes, and then centrifugally washed twice with the HBSS buffer. The collected cells are suspended to 2×10⁶ cells/mL with an FACS buffer (HBSS+1% BSA, with the percentage being the mass percentage), added to a 96-well FACS reaction plate at 100 μL/well, then added with 100 μL/well of the purified EGFRvIII antibody (samples to be tested) obtained in example 2, and incubated on ice for 2 hours. The plate is centrifugally washed twice with the FACS buffer, added with 100 μL/well of a fluorescence (Alexa 488) labeled secondary antibody (purchased from Invitrogen), and then incubated on ice for 1 hour. […] The cells are suspended in 100 μL of the FACS buffer, and the results are detected and analyzed by FACS (FACS Calibur, purchased from BD). Data analysis is performed by using the software (CellQuest) to obtain the mean fluorescence intensity (MFI) of the cells. Data is further analyzed by using the software (GraphPad Prism5) to perform data fitting and calculate EC50. […]

[8] = target: T7, human EGFRvIII protein on the cell surface (human, UniProt P00533 25-1210); experiment: FACS on U87MG-hEGFRvIII cells
T7 construct: whole, on cells; the cell line is named under assay; also called hEGFRvIII; U87MG-hEGFRvIII

[9] = target: T7, human EGFRvIII protein on the cell …; experiment: FACS on CHOk1-EGFRvIII cells

Row | binding result [1] | binding result [2] | binding result [3] | binding result [4] | OD450 nm [5] | EC50 [6] [nM] | EC50 [7] [nM] | EC50 [8] [nM] | EC50 [9] [nM] | Maximum mean fluorescence intensity [9] [MFI] | Binder
1 | no binding | no binding | no binding | no binding | 0.07 | – | – | – | – | – | Murine anti-75G7 (antibody, V domains shown, murine hybridoma antibody; also called 75G7C6) VH: EVQLQQSGPELVKPGASVKIPCKASGYTFTDYNMDWVKQSHGKSLEWIGDINPNNGDTIYNQKFKGKATLTVDKSSSTAYMELRSLTSEDTAVYYCARGDYDGYYPVYYAMDYWGQGTSVTVSS VL: ENVLTQSPAIMSASPGEKVTMTCRASSSVSSSYLHWYQQKSGASPKLWIFSTSNLAAGVPARFSGSGSGTSYSLTVSSVEAEDAATYYCQQYSGYPLTFGAGTKLELK
2 | – | – | – | – | – | 13.4 | 14.2 | 6.1 | 10.5 | 112000 | Chimeric antibody 75G7 (antibody, human IgG1, V domains shown, also called c75G7C6; chimeric antibody c75G7C6) VH: EVQLQQSGPELVKPGASVKIPCKASGYTFTDYNMDWVKQSHGKSLEWIGDINPNNGDTIYNQKFKGKATLTVDKSSSTAYMELRSLTSEDTAVYYCARGDYDGYYPVYYAMDYWGQGTSVTVSS VL: ENVLTQSPAIMSASPGEKVTMTCRASSSVSSSYLHWYQQKSGASPKLWIFSTSNLAAGVPARFSGSGSGTSYSLTVSSVEAEDAATYYCQQYSGYPLTFGAGTKLELK
